This note sets out measurements from patent US6673915 (GENERAL HOSPITAL, dated 2004).

For this test, the target named is T1, CC CKR3 stably expressed on HEK-293 cells (Example 10A) (human, UniProt P51677 1-355).
T1 sequence (looked up): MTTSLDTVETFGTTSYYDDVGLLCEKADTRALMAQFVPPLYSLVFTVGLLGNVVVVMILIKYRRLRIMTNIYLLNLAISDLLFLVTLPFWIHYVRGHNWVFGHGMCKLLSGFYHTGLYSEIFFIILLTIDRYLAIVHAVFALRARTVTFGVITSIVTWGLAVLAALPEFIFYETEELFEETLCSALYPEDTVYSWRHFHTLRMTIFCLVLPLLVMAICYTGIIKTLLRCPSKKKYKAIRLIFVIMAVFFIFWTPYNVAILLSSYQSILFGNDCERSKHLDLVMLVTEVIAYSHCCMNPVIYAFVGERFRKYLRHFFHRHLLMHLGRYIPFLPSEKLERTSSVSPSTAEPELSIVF
In words: cell-based or functional assay.

B1: recombinant human MCP-4 with the mature N-terminal Gln (PeproTech) (ligand)
chain: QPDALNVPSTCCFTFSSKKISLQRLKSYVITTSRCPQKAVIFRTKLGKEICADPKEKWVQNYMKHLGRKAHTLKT
For the molecule B1, the “EC50 of calcium flux relative to eotaxin at CKR3” value is ~2 fold.
